From article PMC11910589
Where two headings read alike, the source gives them in different places.

What was measured:
Experiment in all cases: fluorescence polarization
dP75 PWWP [1] = molecular target: T1, dP75 PWWP (Drosophila melanogaster, UniProt Q9VAA9 9-90)
T1 sequence: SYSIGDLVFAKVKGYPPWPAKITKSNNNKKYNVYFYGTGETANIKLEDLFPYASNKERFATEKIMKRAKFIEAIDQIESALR

dP75 PWWP [2] = molecular target: T1, dP75 PWWP; remark: listed apart in the source
LEDGF/p75 PWWP = LEDGF/p75 PWWP (Homo sapiens, UniProt O75475 4-89)
LEDGF/p75 PWWP, sequence (O75475 4-89): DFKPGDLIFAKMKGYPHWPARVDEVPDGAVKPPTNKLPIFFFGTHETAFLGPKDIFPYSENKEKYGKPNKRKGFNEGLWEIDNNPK

dP75 PWWP E48A = molecular target: T2, dP75 PWWP E48A (Drosophila melanogaster, UniProt Q9VAA9 9-90, E48A)
T2 sequence: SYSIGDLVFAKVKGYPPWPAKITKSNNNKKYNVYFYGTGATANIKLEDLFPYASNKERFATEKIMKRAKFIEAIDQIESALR

dP75 PWWP K38A = molecular target: T3, dP75 PWWP K38A (Drosophila melanogaster, UniProt Q9VAA9 9-90, K38A)
T3 sequence: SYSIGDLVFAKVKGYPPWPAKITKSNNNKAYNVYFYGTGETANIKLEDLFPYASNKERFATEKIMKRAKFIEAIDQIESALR

dP75 PWWP F43A = molecular target: T4, dP75 PWWP F43A (Drosophila melanogaster, UniProt Q9VAA9 9-90, F43A)
T4 sequence: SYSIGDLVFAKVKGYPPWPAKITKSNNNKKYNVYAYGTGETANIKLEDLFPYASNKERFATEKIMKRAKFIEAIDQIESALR

dP75 PWWP Y23A = molecular target: T5, dP75 PWWP Y23A (Drosophila melanogaster, UniProt Q9VAA9 9-90, Y23A)
T5 sequence: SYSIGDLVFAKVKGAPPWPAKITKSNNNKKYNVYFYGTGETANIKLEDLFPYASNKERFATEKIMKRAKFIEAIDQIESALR

dP75 PWWP K53A = molecular target: T6, dP75 PWWP K53A (Drosophila melanogaster, UniProt Q9VAA9 9-90, K53A)
T6 sequence: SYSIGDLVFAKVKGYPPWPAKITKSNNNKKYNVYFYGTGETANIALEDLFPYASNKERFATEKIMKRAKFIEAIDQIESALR

dP75 PWWP [3] = molecular target: T1, dP75 PWWP; remark: listed apart in the source
dP75 PWWP [4] = molecular target: T1, dP75 PWWP; remark: listed apart in the source

B1: 20 bp random (dsDNA)
DNA 1: CGATCTGCGTCAGCTGTAGC
DNA 2: GCTACAGCTGACGCAGATCG
dP75 PWWP [1]
  binding result: no binding

B2: FAM-12G (polyG) (ssDNA)
DNA: GGGGGGGGGGGG
dP75 PWWP [2]
  binding result: no binding

B3: FAM-12T (polyT) (ssDNA)
DNA: TTTTTTTTTTTT
LEDGF/p75 PWWP
  binding result: no binding
dP75 PWWP E48A
  Kd: 64.2 ± 2.8 µM
dP75 PWWP K38A
  Kd: 60.9 ± 0.9 µM
dP75 PWWP F43A
  binding result: no binding
dP75 PWWP Y23A
  binding result: no binding
dP75 PWWP [1]
  Kd: 24.2 ± 1.1 µM
dP75 PWWP K53A
  Kd: 109 ± 2.9 µM

B4: FAM-12A (polyA) (ssDNA)
DNA: AAAAAAAAAAAA
dP75 PWWP [3]
  binding result: no binding

B5: 12 bp poly(G:C) (dsDNA)
DNA 1: GGGGGGGGGGGG
DNA 2: CCCCCCCCCCCC
dP75 PWWP [1]
  binding result: no binding

B6: 12 bp poly(A:T) (dsDNA)
DNA 1: TTTTTTTTTTTT
DNA 2: AAAAAAAAAAAA
dP75 PWWP [4]
  Kd: 18.2 ± 1.17 µM

B7: FAM-12C (polyC) (ssDNA)
DNA: CCCCCCCCCCCC
dP75 PWWP [1]
  Kd: 151 ± 38.9 µM
